Assay results as given in publication PMC12615762.

Substrate: NCCC(=O)N[C@@H](Cc1cnc[nH]1)C(=O)O
Experiment: purified protein
Conditions: SAM

B1: carnosine N-methyltransferase (CNMT, CARNMT1, C9orf41) (Homo sapiens) (protein)
chain: MQRRRRPPPPTSRLPEGCGGGGGGSEEVEVQFSAGRWGSAAAVSAAAAAATRSTEEEEERLEREHFWKIINAFRYYGTSMHERVNRTERQFRSLPANQQKLLPQFLLHLDKIRKCIDHNQEILLTIVNDCIHMFENKEYGEDGNGKIMPASTFDMDKLKSTLKQFVRDWSETGKAERDACYQPIIKEILKNFPKERWDPSKVNILVPGAGLGRLAWEIAMLGYACQGNEWSFFMLFSSNFVLNRCSEINKYKLYPWIHQFSNNRRSADQIRPIFFPDVDPHSLPPGSNFSMTAGDFQEIYSECNTWDCIATCFFIDTAHNVIDYIDTIWKILKPGGIWINLGPLLYHFENLANELSIELSYEDIKNVVLQYGFKVEVEKESVLSTYTVNDLSMMKYYYECVLFVVRKPQ
Km: 4.631 µM
